According to PMC7889650:

Target: Nle-substituted 187-bp NCP (Xenopus laevis)
Experiment: cryo-EM structure

stoichiometry N: 1 NSD2 per NCP
Substance: NSD2C-E1099K/T1150A (from UniProt O96028 661-1365) (domain or fragment)
